The target of the data set is SARS-CoV-2 nucleocapsid protein (Np) (SARS-CoV-2, UniProt P0DTC9 1-419). The experiment in a line: SPR. On the technique in general: In SPR one partner is held on a chip, and binding of the other changes the refractive index at the surface.

By Kd is commonly meant the equilibrium constant for the complex coming apart.

B1: A48t-T20-A61t (DNA-BC) (ssDNA)
DNA: TTCCTTAGGGGCACCGCTACATTTTTTTTTTTTTTTTTTTTTACCTTTACAGATCGGATTCTGTGGGGCG
Regarding B1, the Kd was 1.04 nM.

The values above are taken from PMC9851723.
